Target: the molecule itself
Assay: cryo-EM structure; purified hXPR1 at 10 to 20 mg/mL in GDN/LMNG/CHS detergent mixture; apo: 20 mM Tris pH 7.4, 150 mM NaCl (C1 symmetry); also with 25 mM sodium phosphate, 150 mM NaCl, 1 mM phytic acid (InsP6) pH 7.4 (C2 symmetry imposed)

B1: human Xenotropic and Polytropic retrovirus Receptor 1 (hXPR1) (natural protein, UniProt Q9UBH6 1-696, looked up)
chain: MKFAEHLSAHITPEWRKQYIQYEAFKDMLYSAQDQAPSVEVTDEDTVKRYFAKFEEKFFQTCEKELAKINTFYSEKLAEAQRRFATLQNELQSSLDAQKESTGVTTLRQRRKPVFHLSHEERVQHRNIKDLKLAFSEFYLSLILLQNYQNLNFTGFRKILKKHDKILETSRGADWRVAHVEVAPFYTCKKINQLISETEAVVTNELEDGDRQKAMKRLRVPPLGAAQPAPAWTTFRVGLFCGIFIVLNITLVLAAVFKLETDRSIWPLIRIYRGGFLLIEFLFLLGINTYGWRQAGVNHVLIFELNPRSNLSHQHLFEIAGFLGILWCLSLLACFFAPISVIPTYVYPLALYGFMVFFLINPTKTFYYKSRFWLLKLLFRVFTAPFHKVGFADFWLADQLNSLSVILMDLEYMICFYSLELKWDESKGLLPNNSEESGICHKYTYGVRAIVQCIPAWLRFIQCLRRYRDTKRAFPHLVNAGKYSTTFFMVTFAALYSTHKERGHSDTMVFFYLWIVFYIISSCYTLIWDLKMDWGLFDKNAGENTFLREEIVYPQKAYYYCAIIEDVILRFAWTIQISITSTTLLPHSGDIIATVFAPLEVFRRFVWNFFRLENEHLNNCGEFRAVRDISVAPLNADDQTLLEQMMDQDDGVRNRQKNRSWKYNQSISLRRPRLASQSKARDTKVLIEDTDDEANT
notes: Xenotropic and Polytropic retrovirus Receptor 1 (XPR1), human, Uniprot Q9UBH6, full length; cDNA synthesized with a C-terminal Strep-tag II; Homodimer in the detergent mixture (GDN/LMNG/CHS) by cryo-EM; also called SLC53a1; apo-hXPR1
  stoichiometry N: 2
